Reference: patent US9725517B2, “Humanized monoclonal antibodies against the extracellular domain of human death receptor 5” (Institute of Basic Medical Sciences, Chinese Academy of …, priority 2012, dated 2017)

System: Jurkat, HCT116, BEL-7402 and H460 cancer cells
Assay: CCK-8 cytotoxicity assay of killing cancer cells
Assay type: cell-based, human
Details: summary statement; leukemia, liver cancer, colon cancer, lung cancer cells
Experimental: The assay was carried out in 96-well cell culture plates. Various concentrations (0, 0.5, 1, 2, 4, 8 μg/ml) of humanized anti-human DR5 monoclonal antibodies AD10, AD14 and AD15 were separately added into to human T-cell lymphocytic leukemia cells Jurkat (ATCC, TIB-152), colon cancer cells HCT116 (ATCC, CCL-247), liver cancer cells BEL-7402 (cell bank, Shanghai Institutes for Biological Sciences of Chinese Academy of Sciences, TCHu 10) and non-small cell lung cancer cells H460 (ATCC, HTB-177) in logarithmic growth phase, for 24 hours; parental murine anti-human DR5 monoclonal antibody (AD5-10) and human-mouse chimeric antibody zaptuximab were used as controls. According to the protocol of CCK-8 cytotoxicity detection kit (Dojindo, Gaithersburg, Md.), CCK-8 agents were added and incubated for 2 to 4 hours, the OD value was measured at 450 nm wavelength in micro-ELISA plate detector. The OD value in cell-free well was set as blank control “0”. Cell survival rate=OD value in treated well/OD value in untreated well.

B1: zaptuzumab: intact humanized monoclonal antibody against DR5 expressed in HEK293 cells and purified by affinity chromatography (antibody, chains of the INN, looked up, V domains shown)
VH: QVQLVQSGSELKKPGASVKVSCKASGYTFTDFSMNWVRQAPGQGLEWMGWINTETGEPTYADDFKGRFVFSLDTSVSTAYLQISSLKAEDTAVYYCARIDYWGQGTTVTVSS
VL: DIVMTQSPLSLPVTPGEPASISCRSSQSLVHSNGNTYLHWYLQKPGQSPQLLIYKVSNRFSGVPDRFSGSGSGTDFTLKISRVEAEDVGVYYCFQSTHVPHTFGQGTKLEIK
killing activity to cancer cells in vitro: strong killing activity to various cancer cells
